Laboratory results reported in patent US20110281938A1.

Biological target: tissue factor:FVIIa complex (TF:FVIIa) (UniProt P13726)
Assay: cell-based or functional assay

Sequence of tissue factor:FVIIa complex (TF:FVIIa) (P13726 33-295 limits assumed, chain 1 of 2): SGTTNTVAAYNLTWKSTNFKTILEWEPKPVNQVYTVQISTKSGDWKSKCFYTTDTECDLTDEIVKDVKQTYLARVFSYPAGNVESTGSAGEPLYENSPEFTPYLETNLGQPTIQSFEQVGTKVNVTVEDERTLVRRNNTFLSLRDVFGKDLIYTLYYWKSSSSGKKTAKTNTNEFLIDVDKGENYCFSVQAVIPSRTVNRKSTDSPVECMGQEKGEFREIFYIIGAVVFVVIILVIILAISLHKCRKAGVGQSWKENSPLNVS
Sequence of tissue factor:FVIIa complex (TF:FVIIa) (P08709 61-466 limits assumed, chain 2 of 2, further chain): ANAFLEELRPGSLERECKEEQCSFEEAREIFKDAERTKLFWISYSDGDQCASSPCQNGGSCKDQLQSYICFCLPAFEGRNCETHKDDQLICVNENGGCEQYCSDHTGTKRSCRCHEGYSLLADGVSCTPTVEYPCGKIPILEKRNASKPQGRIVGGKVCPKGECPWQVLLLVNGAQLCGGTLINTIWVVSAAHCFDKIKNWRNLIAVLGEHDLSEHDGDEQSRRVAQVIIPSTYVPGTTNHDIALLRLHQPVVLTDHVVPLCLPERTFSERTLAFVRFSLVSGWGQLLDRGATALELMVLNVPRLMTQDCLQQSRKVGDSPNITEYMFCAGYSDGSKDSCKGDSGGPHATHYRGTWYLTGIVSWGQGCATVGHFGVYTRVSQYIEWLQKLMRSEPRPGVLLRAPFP

rate of FXa generation at 4 minutes, extrinsic tenase (Xase) inhibition assay, 1 nM TFPI: 70%
Substance: TFPI (source and species not stated; Examples 8, 12 and 45) (from UniProt P10646 29-304)
